Measured values from IntAct's records for PubMed 21804557.

B1: Indoleamine 2,3-dioxygenase 1 (Mus musculus), P28776 (parent)
chain: MALSKISPTEGSRRILEDHHIDEDVGFALPHPLVELPDAYSPWVLVARNLPVLIENGQLREEVEKLPTLSTDGLRGHRLQRLAHLALGYITMAYVWNRGDDDVRKVLPRNIAVPYCELSEKLGLPPILSYADCVLANWKKKDPNGPMTYENMDILFSFPGGDCDKGFFLVSLLVEIAASPAIKAIPTVSSAVERQDLKALEKALHDIATSLEKAKEIFKRMRDFVDPDTFFHVLRIYLSGWKCSSKLPEGLLYEGVWDTPKMFSGGSAGQSSIFQSLDVLLGIKHEAGKESPAEFLQEMREYMPPAHRNFLFFLESAPPVREFVISRHNEDLTKAYNECVNGLVSVRKFHLAIVDTYIMKPSKKKPTDGDKSEEPSNVESRGTGGTNPMTFLRSVKDTTEKALLSWP

Variants of: B1
Details: with ptn6_mouse Ptpn6, P29351
Chain of ptn6_mouse Ptpn6, P29351 (P29351 whole entry): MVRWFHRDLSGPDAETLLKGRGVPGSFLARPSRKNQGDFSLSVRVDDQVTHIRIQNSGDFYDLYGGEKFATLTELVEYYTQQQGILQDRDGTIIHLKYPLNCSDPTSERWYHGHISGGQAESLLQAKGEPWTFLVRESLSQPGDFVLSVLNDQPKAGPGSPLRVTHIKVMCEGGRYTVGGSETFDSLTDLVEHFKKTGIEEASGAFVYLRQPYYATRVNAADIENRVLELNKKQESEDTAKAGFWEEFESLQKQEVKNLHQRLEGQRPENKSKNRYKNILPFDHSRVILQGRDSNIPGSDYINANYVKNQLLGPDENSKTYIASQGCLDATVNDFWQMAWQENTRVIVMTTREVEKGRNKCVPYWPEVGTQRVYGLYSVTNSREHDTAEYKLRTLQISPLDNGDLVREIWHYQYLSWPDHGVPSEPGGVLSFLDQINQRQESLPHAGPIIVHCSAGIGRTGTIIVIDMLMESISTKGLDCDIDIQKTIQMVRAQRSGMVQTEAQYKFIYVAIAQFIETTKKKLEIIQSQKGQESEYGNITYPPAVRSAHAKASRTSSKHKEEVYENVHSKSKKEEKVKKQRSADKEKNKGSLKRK

Row | Variant | effect of a mutation on the interaction
1 | Y115F;Y253F | decreasing interaction
